# T1: FcγRIIa(R) extracellular domain, C-terminal His tag (human, UniProt P12318 34-217)
# T1 construct: extracellular domain; Allotype R131; also called 2aR
# T1 sequence: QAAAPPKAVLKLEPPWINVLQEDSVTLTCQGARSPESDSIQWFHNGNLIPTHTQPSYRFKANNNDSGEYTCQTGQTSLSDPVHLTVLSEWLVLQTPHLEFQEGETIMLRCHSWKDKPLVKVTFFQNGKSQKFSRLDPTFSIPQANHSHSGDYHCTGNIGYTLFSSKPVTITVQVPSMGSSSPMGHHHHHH
# T2: FcγRIIb extracellular domain, C-terminal His tag (human, UniProt P31994 43-217)
# T2 construct: extracellular domain; also called 2b
# T2 sequence: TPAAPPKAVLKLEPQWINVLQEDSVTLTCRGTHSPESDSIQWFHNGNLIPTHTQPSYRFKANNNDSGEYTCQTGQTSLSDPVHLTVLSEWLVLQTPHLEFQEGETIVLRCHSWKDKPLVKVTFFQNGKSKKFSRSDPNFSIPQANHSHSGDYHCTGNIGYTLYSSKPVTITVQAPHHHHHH
# T3: FcγRIIa(H) extracellular domain, C-terminal His tag (human, UniProt P12318 34-217)
# T3 construct: extracellular domain; Allotype H131; also called 2aH
# T3 sequence: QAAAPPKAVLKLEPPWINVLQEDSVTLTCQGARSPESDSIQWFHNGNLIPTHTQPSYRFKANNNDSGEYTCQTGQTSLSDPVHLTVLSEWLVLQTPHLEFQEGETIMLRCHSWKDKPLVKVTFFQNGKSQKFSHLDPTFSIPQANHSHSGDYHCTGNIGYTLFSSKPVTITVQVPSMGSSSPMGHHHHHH
# What was measured:
# Assay in all cases: SPR (Biacore); binding relative to GpH7-A5/GpH7-B3/GpL16-k0 x100;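 note: antibodies captured on a chip surface, soluble FcγR flowed over in HBS-EP+ running buffer at 25 °C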
# [1] = target: T1, FcγRIIa(R) extracellular domain, …
# Method: (§1) The antibody of interest was analyzed for its interaction with FcγR using a BiaCore™ T100, BiaCore™ A100, or BiaCore™ 4000 surface plasmon resonance system (GE Healthcare Japan Corp.). The running buffer used was HBS-EP+ (GE Healthcare Japan Corp.). The assay temperature was set to 25° C. The sensor chips used were: a chip prepared by immobilizing antigenic peptides onto Series S Sensor Chip CM5 (GE Healthcare Japan Corp.) by the amine coupling method; a chip prepared by immobilizing antigenic peptides biotinylated in advance onto Series S Sensor Chip SA (certified) (GE Healthcare Japan Corp.) through their interaction; a chip prepared by immobilizing protein L (ACTIGEN, BioVision, Inc.) onto Series S Sensor Chip CM5 (GE Healthcare Japan Corp.); and a chip prepared by immobilizing protein A/G (Thermo Fisher Scientific K.K.) onto Series S Sensor Chip CM5 (GE Healthcare Japan Corp.). The antibody of interest was captured onto any of these chips and allowed to interact with FcγR diluted with a running buffer. The antibody captured on the chip was washed off through the reaction of 10 mM glycine-HCl (pH 1.5) to regenerate the chip, which was repetitively used.
# [2] = target: T4, FcγRIa extracellular domain, C-terminal His tag (human, UniProt P12314 16-292)
# T4 construct: extracellular domain; also called 1a
# T4 sequence (P12314 other isoform, or with tags, fused parts or gaps): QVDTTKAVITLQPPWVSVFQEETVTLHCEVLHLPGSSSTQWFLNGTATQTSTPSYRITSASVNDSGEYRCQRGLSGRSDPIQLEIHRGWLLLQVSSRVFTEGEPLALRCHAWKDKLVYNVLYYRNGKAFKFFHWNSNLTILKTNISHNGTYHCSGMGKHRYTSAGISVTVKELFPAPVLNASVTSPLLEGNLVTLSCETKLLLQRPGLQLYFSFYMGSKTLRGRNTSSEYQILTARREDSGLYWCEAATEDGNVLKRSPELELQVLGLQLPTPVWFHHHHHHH
# Method: as §1
# [3] = target: T5, FcγRIIIa extracellular domain, C-terminal His tag (human, UniProt P08637 17-208)
# T5 construct: extracellular domain; also called 3a
# T5 sequence (P08637 other isoform, or with tags, fused parts or gaps): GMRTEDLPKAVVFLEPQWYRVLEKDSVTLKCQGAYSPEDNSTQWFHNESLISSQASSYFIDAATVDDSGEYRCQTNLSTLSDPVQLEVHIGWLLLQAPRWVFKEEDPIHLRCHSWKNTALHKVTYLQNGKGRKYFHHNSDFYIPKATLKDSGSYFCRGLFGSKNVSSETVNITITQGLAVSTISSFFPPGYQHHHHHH
# Method: as §1
# [4] = target: T2, FcγRIIb extracellular domain, …
# Method: as §1
# [5] = target: T3, FcγRIIa(H) extracellular domain, …
# Method: as §1
He/Con 2aR [1] [%],He/Con 1a [2] [%],He/Con 3a [3] [%],He/Con 2b [4] [%],He/Con 2aH [5] [%],Binder
125,108,93.7,166,86.7,"GpH7-A5/GpH7-B3 variant K326_20W/GpL16-k0 (antibody, human IgG1, kappa, He Ab: anti-glypican 3 IgG1 heterodimer, only the GpH7-B3 chain mutated; position in EU numbering; also called He Ab) heavy 1: not shown heavy 2: not shown light: DIVMTQSPLSLPVTPGEPASISCQASESLVHSNRNTYLHWYLQKPGQSPQLLIYKVSNRFSGVPDRFSGSGSGTDFTLKISRVEAEDVGVYYCSQNTHVPPTFGQGTKVEIERTVAAPSVFIFPPSDEQLKSGTASVVCLLNNFYPREAKVQWKVDNALQSGNSQESVTEQDSKDSTYSLSSTLTLSKADYEKHKVYACEVTHQGLSSPVTKSFNRGEC"
80,106,54,74.1,89.3,"GpH7-A5/GpH7-B3 variant A327_06M/GpL16-k0 (antibody, human IgG1, kappa, He Ab: anti-glypican 3 IgG1 heterodimer, only the GpH7-B3 chain mutated; position in EU numbering; also called He Ab) heavy 1: not shown heavy 2: not shown light: DIVMTQSPLSLPVTPGEPASISCQASESLVHSNRNTYLHWYLQKPGQSPQLLIYKVSNRFSGVPDRFSGSGSGTDFTLKISRVEAEDVGVYYCSQNTHVPPTFGQGTKVEIERTVAAPSVFIFPPSDEQLKSGTASVVCLLNNFYPREAKVQWKVDNALQSGNSQESVTEQDSKDSTYSLSSTLTLSKADYEKHKVYACEVTHQGLSSPVTKSFNRGEC"
98.6,105,66.7,99,84.4,"GpH7-A5/GpH7-B3 variant A327_13S/GpL16-k0 (antibody, human IgG1, kappa, He Ab: anti-glypican 3 IgG1 heterodimer, only the GpH7-B3 chain mutated; position in EU numbering; also called He Ab) heavy 1: not shown heavy 2: not shown light: DIVMTQSPLSLPVTPGEPASISCQASESLVHSNRNTYLHWYLQKPGQSPQLLIYKVSNRFSGVPDRFSGSGSGTDFTLKISRVEAEDVGVYYCSQNTHVPPTFGQGTKVEIERTVAAPSVFIFPPSDEQLKSGTASVVCLLNNFYPREAKVQWKVDNALQSGNSQESVTEQDSKDSTYSLSSTLTLSKADYEKHKVYACEVTHQGLSSPVTKSFNRGEC"
142,106,70.5,175,108,"GpH7-A5/GpH7-B3 variant A327_10E/GpL16-k0 (antibody, human IgG1, kappa, He Ab: anti-glypican 3 IgG1 heterodimer, only the GpH7-B3 chain mutated; position in EU numbering; also called He Ab) heavy 1: not shown heavy 2: not shown light: DIVMTQSPLSLPVTPGEPASISCQASESLVHSNRNTYLHWYLQKPGQSPQLLIYKVSNRFSGVPDRFSGSGSGTDFTLKISRVEAEDVGVYYCSQNTHVPPTFGQGTKVEIERTVAAPSVFIFPPSDEQLKSGTASVVCLLNNFYPREAKVQWKVDNALQSGNSQESVTEQDSKDSTYSLSSTLTLSKADYEKHKVYACEVTHQGLSSPVTKSFNRGEC"
80.6,102,61.9,86.3,67.9,"GpH7-A5/GpH7-B3 variant A327_05P/GpL16-k0 (antibody, human IgG1, kappa, He Ab: anti-glypican 3 IgG1 heterodimer, only the GpH7-B3 chain mutated; position in EU numbering; also called He Ab) heavy 1: not shown heavy 2: not shown light: DIVMTQSPLSLPVTPGEPASISCQASESLVHSNRNTYLHWYLQKPGQSPQLLIYKVSNRFSGVPDRFSGSGSGTDFTLKISRVEAEDVGVYYCSQNTHVPPTFGQGTKVEIERTVAAPSVFIFPPSDEQLKSGTASVVCLLNNFYPREAKVQWKVDNALQSGNSQESVTEQDSKDSTYSLSSTLTLSKADYEKHKVYACEVTHQGLSSPVTKSFNRGEC"
159,105,86,214,124,"GpH7-A5/GpH7-B3 variant A327_09D/GpL16-k0 (antibody, human IgG1, kappa, He Ab: anti-glypican 3 IgG1 heterodimer, only the GpH7-B3 chain mutated; position in EU numbering; also called He Ab) heavy 1: not shown heavy 2: not shown light: DIVMTQSPLSLPVTPGEPASISCQASESLVHSNRNTYLHWYLQKPGQSPQLLIYKVSNRFSGVPDRFSGSGSGTDFTLKISRVEAEDVGVYYCSQNTHVPPTFGQGTKVEIERTVAAPSVFIFPPSDEQLKSGTASVVCLLNNFYPREAKVQWKVDNALQSGNSQESVTEQDSKDSTYSLSSTLTLSKADYEKHKVYACEVTHQGLSSPVTKSFNRGEC"
114,100,62.8,141,79,"GpH7-A5/GpH7-B3 variant A327_18N/GpL16-k0 (antibody, human IgG1, kappa, He Ab: anti-glypican 3 IgG1 heterodimer, only the GpH7-B3 chain mutated; position in EU numbering; also called He Ab) heavy 1: not shown heavy 2: not shown light: DIVMTQSPLSLPVTPGEPASISCQASESLVHSNRNTYLHWYLQKPGQSPQLLIYKVSNRFSGVPDRFSGSGSGTDFTLKISRVEAEDVGVYYCSQNTHVPPTFGQGTKVEIERTVAAPSVFIFPPSDEQLKSGTASVVCLLNNFYPREAKVQWKVDNALQSGNSQESVTEQDSKDSTYSLSSTLTLSKADYEKHKVYACEVTHQGLSSPVTKSFNRGEC"
